{"source": "patent US4133804A", "about": "“Polypeptide possessing thymic activity” (Institut National de la Sante et de la Recherche Medicale …, priority 1976, dated 1979)", "key": {"[1]": {"experiment": "isoelectric point", "type": "physicochemical", "details": "given as pH", "description": "The polypeptide hormone of this invention has an isoelectric point (pI) at pH 7.5 ± 0.1. Lack of affinity to activated charcoal indicates the absence of aromatic amino acids. Elution of the polypeptide with the void volume when chromatographed on Sephadex G-10 and retention on Sephadex G-15, G-25 and G-50 indicates a molecular weight greater than 700 and less than 3,000. Ultrafiltration through Amicon membranes indicates a molecular weight of […] to 10,000. No significant retention of the polypeptide is observed on CF-50, PM-30 and PM-10 membranes which have molecular cut-offs of 50,000; 30,000 and 10,000 respectively. Conversely no significant activity is found in UM2 and UM0.5 filtrates which have molecular weight cut-offs of 1,000 and 500 respectively. The polypeptide has the property that it binds to carboxymethyl cellulose at pH lower than 7.0 and to DEAE cellulose at a pH higher than 9.0. The polypeptide bound on carboxymethyl cellulose can be eluted with 0.12M NaCl."}, "[2]": {"test_system": "spleen rosette forming cells (RFC)", "experiment": "cells", "details": "Mus musculus, read-out: AZ minimal concentration inhibiting 50 percent spleen rosette forming cells", "quoted_text": "At the end of the incubation, 12 × 10^6 sheep red blood cells (SRBC) are added to the cells in the test sample. The cells in the sample are centrifuged for 6 minutes at 200 g. and carefully and gently resuspended by rotation on a roller (10 cm. diameter) at low speed (10 rev./min.). RFC are counted in a haematocytometer. In the absence of thymic activity, the number of RFC is 1210/10^6 cells ± 120 (standard deviation, SD). In the presence of thymic activity, the RFC level is lowered to 200 to 400/10^6 cells."}}, "note": "Non-standard residues stand in square brackets, D forms with d. No end group written: not given here. pGlu = O=C1CC[C@@H](C(=O)O)N1"}
{"compound": "pyroglutamyl-Ala-Lys-Ser-Gln-Gly-Gly-Ser-Asn ([pGlu]AKSQGGSN) [polypeptide hormone, polypeptide hormone isolated from porcine blood]", "values": [{"measurement": "isoelectric point (pI)", "setting": "[1]", "value": "7.5 ± 0.1"}, {"measurement": "isoelectric point (pI)", "setting": "[1]; listed as thymic factor", "value": "~7.5"}]}
{"compound": "Cn1cnc([N+](=O)[O-])c1Sc1ncnc2nc[nH]c12", "note": "[AZ, azathioprine]", "values": [{"measurement": "IC50", "setting": "[2]", "value": 1, "unit": "µg/mL"}]}
